How the values were obtained:
Experiment in all cases: co-immunoprecipitation with bead-bound His-SUMO-BdRFS^Δ1-45 from crude leaf protein extract, LC-MS/MS
Conditions in all cases: scale: LFQ intensity
[1] = biological target: PLAT1 (Polycystin, Lipoxygenase, Alpha-toxin, and Triacylglycerol lipase 1) (Brachypodium distachyon)
[2] = biological target: NCED1 (Nine-cis Epoxycarotenoid Cleavage Dioxygenase 1) (Brachypodium distachyon)
[3] = biological target: Phospholipase D α1 (BdPLD α1, Bd2g04480) (Brachypodium distachyon)
[4] = biological target: LPR2 (Low Phosphate Root 2; cupredoxin family) (Brachypodium distachyon)
[5] = biological target: Abscisic acid-, Stress- and Ripening-induced 2 (BdASR2, Bd4g24650) (Brachypodium distachyon)

average LFQ intensity in eluate [2]: 1.48e+07
average LFQ intensity in eluate [3]: 9.17e+06
average LFQ intensity in eluate [4]: 2.53e+07
average LFQ intensity in eluate [5]: 5.19e+07
B1: His-SUMO-BdRFS^Δ1-45 (protein, not shown: small tags and cut ends; large carriers)
chain: RVRAAGSSHKPGGAVVRSTLVDNKKIASESFDGPRPARSEPASPISEPSSPSKVRFTAYYGGTGSDGGDDGVVEGVKKCAERDEDDFNGESETAVLRRTASMRMRSTIKAPLMAAPDWEEKEMALRKRGDLGWYRHLDMAVLDGSVVRLWTGEVTAAVQASPRERRRAGLELHLSV
average LFQ intensity in eluate [1]: 2.25e+07

From patent US20240150785A1
